For one test, the target named is T1, human PD1 ECD (human, UniProt Q15116 21-170).
T1 construct: range 21-170; also called recombinant monomeric human PD1; recombinant human PD1
The test is described as follows: SPR (ProteOn XPR36), antibody captured on Protein A/G, PD1 ECD as analyte, 1:1 Langmuir fit. As for the experimental part: Binding affinities to recombinant monomeric human PD1 were measured by SPR using a ProteOn XPR36 instrument. […] Human PD1 ECD was injected over the captured antibodies for 600 sec at a flowrate of 30 ul/min and a dissociation for 1200 sec.

Test [1] has as its target T2, human PD1 expressed on the surface of CHO cells (human, UniProt Q15116 25-288).
T2 construct: whole, on cells; also called PD1 expressing CHO cells
Nature of the test: ligand blocking on PD1-expressing CHO cells, competitor biotin-PD-L1. As for the experimental part:
(§1) The mixture was incubated for 1 hour at 37 degrees celsius. […] Percentage inhibition values were calculated in Excel and curve fitting was done with GraphPad Prism. Data points of the curve are mean values of triplicate measurements.

Test [2] concerns the target T2, human PD1 expressed on the surface of …. The test is described as follows: blocking assay on cells: biotin-labelled human PD-L1 binding to PD1-expressing CHO cells, Europium-streptavidin fluorescence, % inhibition against antibody concentration [A]. How it is done:
as §1

Test [3] shares this target. The test is described as follows: ligand blocking on PD1-expressing CHO cells, competitor biotin-PD-L2. How it is done: as §1
Test [4] shares this target. Nature of the test: blocking assay on cells: biotin-labelled human PD-L2 binding to PD1-expressing CHO cells, Europium-streptavidin fluorescence, % inhibition against antibody concentration [D]. How it is done: as §1
Test [5] shares this target. The test is described as follows: blocking assay on cells: biotin-labelled human PD-L1 binding to PD1-expressing CHO cells, Europium-streptavidin fluorescence, % inhibition against antibody concentration [B]. How it is done: as §1
The target is the same in test [6]. The test is described as follows: blocking assay on cells: biotin-labelled human PD-L2 binding to PD1-expressing CHO cells, Europium-streptavidin fluorescence, % inhibition against antibody concentration [E]. How it is done: as §1
For test [7], the target named is T3, Human LAG3 ECD-Fc (human, UniProt P18627 23-450).
T3 construct: extracellular domain; 23-450 is stated only for the immunogen; also called recombinant human LAG3 extracellular domain fused to human Fc; hLAG3-hlgFc; not shown: Fc
T3 sequence (looked up): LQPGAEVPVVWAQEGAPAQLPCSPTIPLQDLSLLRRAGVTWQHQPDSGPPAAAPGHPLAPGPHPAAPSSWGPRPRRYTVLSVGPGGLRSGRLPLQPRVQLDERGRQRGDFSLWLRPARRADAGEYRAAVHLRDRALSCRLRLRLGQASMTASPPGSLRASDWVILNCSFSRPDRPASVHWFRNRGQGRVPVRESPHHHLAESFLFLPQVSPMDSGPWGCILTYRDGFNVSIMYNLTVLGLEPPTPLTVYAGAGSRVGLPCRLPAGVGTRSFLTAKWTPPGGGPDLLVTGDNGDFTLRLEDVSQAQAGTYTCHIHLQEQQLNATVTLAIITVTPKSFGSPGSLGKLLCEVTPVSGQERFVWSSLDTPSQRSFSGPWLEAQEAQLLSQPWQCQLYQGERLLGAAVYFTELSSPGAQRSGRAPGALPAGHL
The test is described as follows: SPR, antibody captured on Protein A/G, LAG3 ECD-Fc as analyte, 1:1 Langmuir fit. On the technique in general: SPR reads the build-up and loss of mass on a sensor chip optically.

For test [8], the target named is T3, Human LAG3 ECD-Fc. Nature of the test: blocking assay by FACS: LAG3 ECD-Fc pre-incubated with the antibody, then binding to MHC II on Raji cells detected with PE anti-human IgG, % inhibition against antibody concentration. On the technique in general: Flow cytometry measures light scatter and fluorescence of single cells or particles in a stream.
The next test addresses T4, human LAG3 (ECD) (human, UniProt P18627 23-450).
T4 construct: range 23-450; the screening reagent is called only 'human LAG3 (ECD)'; also called human LAG3 ECD protein
T4 sequence (looked up): T3 sequence (looked up)
The test is described as follows: hybridoma screening.

As usually defined, the Kd is the constant that tells how readily two partners part at equilibrium. By IC90 is commonly meant the point of the concentration-response curve where the effect stands at 90%. Low values mean an effect from little substance, high ones a need for much substance.

Changes are numbered by the printed parent chain.

T2 sequence (Q15116 25-288): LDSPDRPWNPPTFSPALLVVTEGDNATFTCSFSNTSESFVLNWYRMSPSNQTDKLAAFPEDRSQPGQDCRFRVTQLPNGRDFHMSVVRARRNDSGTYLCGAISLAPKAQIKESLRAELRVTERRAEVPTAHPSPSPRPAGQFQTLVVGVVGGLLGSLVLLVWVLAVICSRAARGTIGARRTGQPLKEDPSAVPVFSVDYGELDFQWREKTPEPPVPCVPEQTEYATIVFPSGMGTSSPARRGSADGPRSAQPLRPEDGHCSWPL
T1 sequence (Q15116 21-170 limits assumed, form in doubt): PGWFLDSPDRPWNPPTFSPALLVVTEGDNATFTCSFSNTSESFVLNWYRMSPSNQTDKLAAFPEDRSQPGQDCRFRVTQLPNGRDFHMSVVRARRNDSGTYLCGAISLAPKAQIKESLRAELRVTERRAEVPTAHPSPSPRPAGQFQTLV

B1: PD1-1 (antibody, human IgG4 S228P, kappa, V domains shown)
VH: EVMLVESGGGLVQPGGSLRLSCTASGFTFSASAMSWVRQAPGKGLEWVAYISGGGGDTYYSSSVKGRFTISRDNAKNSLYLQMNSLRAEDTAVYYCARHSNVNYYAMDYWGQGTLVTVSS
VL: EIVLTQSPATLSLSPGERATMSCRASENIDTSGISFMNWYQQKPGQAPKLLIYVASNQGSGIPARFSGSGSGTDFTLTISRLEPEDFAVYYCQQSKEVPWTFGQGTKLEIKR
notes: Humanized derivative of murine 77E11; the HC is IgG4 (Pro), kappa light chain; also called anti-PD1 antibody PD1-1
In the test with human PD1 ECD, B1 came in with a dissociation constant (Kd) of 16.6 nM. In addition, the IC90 in test [1] is 2.12 nM; in test [3] it was 2.09 nM. The “IC50 (read off the curve)” value in test [2] is about 0.8 nM; in test [4], about 1 nM.

B2: PD1-3 (antibody, human IgG4 S228P, kappa, V domains shown)
VH: B1 VH with A31K
VL: B1 VL with T31V
notes: Humanized derivative of murine 77E11; the HC is IgG4 (Pro), kappa light chain; also called anti-PD1-3; representative anti-PD1 antibody of the invention
Regarding B2, in the test with human PD1 ECD, the affinity, expressed as Kd, was 6 nM. The values for the IC90 in test [1] and in test [3] were 1.68 nM and 1.95 nM, respectively. The entries for the “IC50 (read off the curve)” value in test [5] and in [6] were about 0.8 nM and about 1 nM, respectively.

B3: PD1-2 (antibody, human IgG4 S228P, kappa, V domains shown)
VH: B1 VH with V102P
VL: B1 VL
notes: Humanized derivative of murine 77E11; the HC is IgG4 (Pro), kappa light chain; also called anti-PD1 antibody PD1-2
Take B3: binding with human PD1 ECD was put at a Kd of 61.8 nM. In addition, the values for the IC90 in [1] and in [3] were 2.97 nM and 3.64 nM, respectively. Moreover, the “IC50 (read off the curve)” value in test [2] and in test [4] was about 1 nM in each case.

B4: LAG3-4 (antibody, human IgG4 S228P, kappa, V domains shown)
VH: QVTLVESGGGVVQPGRSLRLSCAFSGFSLSTSDMGVGWIRQAPGKGLEWVAHIWWDDVKRYNPALKSRFTISRDNSKNTLYLQMNSLRAEDTATYFCARIEDYGVSYYFDYWGQGTTVTVSS
VL: DIVMTQSPSFLSASVGDRVTITCKASQDVSTAVAWYQQKPGKAPKLLIYSASYRYTGVPDRFSGSGSGTDFTLTISSLQPEDFATYYCQQHYSIPLTFGQGTKLEIKR
notes: Humanized derivative of murine 496G6, human IgG4 (Pro) format, kappa; also called anti-LAG3 antibody LAG3-4
For the molecule B4, the dissociation constant (Kd) with Human LAG3 ECD-Fc [7] worked out at 0.1 nM.

B5: LAG3-2 (antibody, human IgG4 S228P, kappa, V domains shown)
VH: QVTLKESGPTLVKPTQTLTLTCSFSGFSLSTSDMGVGWIRQPPGKALEWLAHIWWDDVKRYNPALKSRLTITKDTSKNQVVLTMTNMDPVDTATYFCARIEDYGVSYYFDYWGQGTTVTVSS
VL: B4 VL with V3Q, I21F
notes: Humanized derivative of murine 496G6, human IgG4 (Pro) format, kappa; also called anti-LAG3 antibody LAG3-2
As for B5, in the test with Human LAG3 ECD-Fc [8], the “IC50 (read off the curve)” value is about 0.7 nM. The Kd with Human LAG3 ECD-Fc [7] stood at 0.09 nM.

B6: LAG3-1 (antibody, human IgG4 S228P, kappa, V domains shown)
VH: B4 VH with T94V
VL: B4 VL with V3Q, T20S
notes: Humanized derivative of murine 496G6, human IgG4 (Pro) format, kappa; also called representative anti-LAG3 antibody of the invention
Regarding B6, the “IC50 (read off the curve)” value in the test with Human LAG3 ECD-Fc [8] is about 1 nM. The dissociation constant Kd with Human LAG3 ECD-Fc [7] was 0.125 nM.

B7: LAG3-5 (antibody, human IgG4 S228P, kappa, V domains shown)
VH: B5 VH with E101V
VL: B4 VL with V3Q, T20S, T85V
notes: Humanized derivative of murine 496G6, human IgG4 (Pro) format, kappa; also called anti-LAG3 antibody LAG3-5
In the case of B7, the “IC50 (read off the curve)” value with Human LAG3 ECD-Fc [8] was about 1 nM. Further, in the test with Human LAG3 ECD-Fc [7], the Kd amounted to 0.07 nM.

B8: LAG3-3 (antibody, human IgG4 S228P, kappa, V domains shown)
VH: B4 VH with R19S, I39V, A42P, F96Y
VL: B4 VL with V3Q, Q100A
notes: Humanized derivative of murine 496G6, human IgG4 (Pro) format, kappa; also called anti-LAG3 antibody LAG3-3
For B8, the “IC50 (read off the curve)” value in the test with Human LAG3 ECD-Fc [8] was about 0.8 nM. Besides, in the test with Human LAG3 ECD-Fc [7], the Kd was 0.12 nM.

B9: 496G6 (antibody, V domains shown)
VH: QVTLKESGPGILQPSQTLSLTCSFSGFSLSTSDMGVGWIRQPSGKGLEWLAHIWWDDVKRYNPALKSRLTISKDTSSSQVFLMIASVDTADTATYFCARIEDYGVSYYFDYWGQGTTLTVSS
VL: DIVMTQSHKFMSTSVGDRVSFTCKASQDVNTAVAWYQQKPGQSPKLLIYSASYRYTGVPDRFTGSGSGTDFTFTISSVQAEDLALYYCQQHYSIPLTFGAGTKLELK
notes: Murine monoclonal antibody from a hybridoma; also called murine progenitor antibody 496G6; monoclonal antibody produced by 496G6
Regarding B9, the binding result with human LAG3 (ECD) is “binds”.

The record behind these values is US20170334995A1 (Boehringer Ingelheim, published 2017).
